Data on one molecule can be found in US20180355064A1 (GLENMARK PHARMACEUTICALS S A, published 2018).

The assay has as its target T1, human CD3 epsilon on HPB-ALL cells (human, UniProt P07766 23-207).
T1 construct: whole, on cells; also called human CD3 epsilon positive T cell tumour line
The assay can be described thus: FACS, median fluorescence intensity on HPB-ALL cells. Background: Flow cytometry measures light scatter and fluorescence of single cells or particles in a stream.

Experimental: HPB-ALL cells (DSMZ, Braunschweig, Germany, Cat. No: ACC483) were used as CD3 positive cell line for FACS staining. […] After washing, cells were incubated with a 1/200 dilution of anti-Human Fc-PE (EBioscience, Vienna, Austria) for 45 min on ice. Cells were then washed again and resuspended in 200 ul FACS buffer.

B1: humanized OKT3 prototype antibody VH/VL (antibody, human IgG1, kappa, V domains shown)
VH: EVQLVESGGGLVQPGGSLRLSCAASGYTFTRYTIHWVRQAPGKGLEWVAYINPSRGYTRYADSVKGRFTISADTSKNTAYLQMNSLRAEDTAVYYCARYYDDHYCLDYWGQGTLVTVSS
VL: DIQMTQSPSSLSASVGDRVTITCRASSSVSYVAWYQQKPGKAPKLLIYDTSKLYSGVPSRFSGSRSGTDFTLTISSLQPEDFATYYCQQWSSNPPTFGQGTKVEIKR
As for B1, the binding result is “no binding”.
